Experimental data reported in publication PMC3154637 (Structure (London, England : 1993), 2011).

Columns and labels:
MBP-AMSH(1–206) = MBP-AMSH(1–206) (human, UniProt O95630 1-206); test: SPR
His-AMSHΔC-K88A = His-AMSHΔC-K88A (human, UniProt O95630 1-146, K88A); test: pull-down

Binder | Kd (MBP-AMSH(1–206)) [nM] | koff (MBP-AMSH(1–206)) [s⁻¹] | kon (MBP-AMSH(1–206)) [M⁻¹ s⁻¹] | binding result (His-AMSHΔC-K88A)
GST-CHMP1AΔN (domain or fragment, UniProt Q9HD42 123-196, looked up) DVHTSVMEDSMSSATTLTTPQEQVDSLIMQIAEENGLEVLDQLSQLPEGASAVGESSVRSQEDQLSRRLAALRN | 1490 | 0.00581 | 3890 | –
GST-CHMP1BΔN (domain or fragment, UniProt Q7LBR1 126-199, looked up) DVQTQQMEDTMSSTTTLTTPQNQVDMLLQEMADEAGLDLNMELPQGQTGSVGTSVASAEQDELSQRLARLRDQV | – | – | – | binds
